Data published in paper doi:10.1101/431288 (bioRxiv, 2018).

Biological target: the molecule itself
Test: cryo-EM structure

B1: human butyrylcholinesterase (HuBChE), native glycosylated enzyme purified from plasma (enzyme, UniProt P06276 29-602, looked up)
chain: EDDIIIATKNGKVRGMNLTVFGGTVTAFLGIPYAQPPLGRLRFKKPQSLTKWSDIWNATKYANSCCQNIDQSFPGFHGSEMWNPNTDLSEDCLYLNVWIPAPKPKNATVLIWIYGGGFQTGTSSLHVYDGKFLARVERVIVVSMNYRVGALGFLALPGNPEAPGNMGLFDQQLALQWVQKNIAAFGGNPKSVTLFGESAGAASVSLHLLSPGSHSLFTRAILQSGSFNAPWAVTSLYEARNRTLNLAKLTGCSRENETEIIKCLRNKDPQEILLNEAFVVPYGTPLSVNFGPTVDGDFLTDMPDILLELGQFKKTQILVGVNKDEGTAFLVYGAPGFSKDNNSIITRKEFQEGLKIFFPGVSEFGKESILFHYTDWVDDQRPENYREALGDVVGDYNFICPALEFTKKFSEWGNNAFFYYFEHRSSKLPWPEWMGVMHGYEIEFVFGLPLERRDNYTKAEEILSRSIVKRWANFAKYGNPNETQNNSTSWPVFKSTEQKYLTLNTESTRIMTKLRAQQCRFWTSFFPKVLEMTGNIDEAEWEWKAGFHRWNNYMMDWKNQFNDYTSKKESCVGL
notes: also called native BChE tetramer
For B1, the “stoichiometry N” value was 4.
